Source: patent CN117866087A

Legend:
pTau181标准品 [1] = assay: bead sandwich flow cytometry; Tau-2 on beads as capture, PE-labelled anti-pTau181 antibody as detector, 5μg/mL pTau181 standard
pTau181标准品 [2] = assay: bead sandwich flow cytometry; Tau-3 on beads as capture, PE-labelled anti-pTau181 antibody as detector, 5μg/mL pTau181 standard

荧光信号强度 (pTau181标准品 [1]): 343000
荧光信号强度 (pTau181标准品 [2]): 420000
B1: 实施例3纯化后的重组抗体(重组抗pTau181单克隆抗体) (antibody, mouse IgG1, kappa, V domains shown)
VH: LQQPGSEYARPGASVKLSCKASGYTFTSYWMHWVKQRHGQLLEWIGNIYPGSGSSNYDEKFKSKGTLTVDTSSSTAYMHLSSLTSEDSAVYYCTRSGWLLRDYAMDYWGQGTSVTVSS
VL: DVLMTQTPLSLPVSLGDQASISCRSSQSIVHSNGNTYLEWYLQKPGQSPKLLIYKVSTRFSGVPDRFSGSGSGTDFTLKISRVEAEDLGVYYCFQGSHVPYTFGGGTKLEIKA
modifications: 在实施例4中偶联藻红蛋白荧光素(方案1)或偶联微球(方案2)
